Results on 41 sequences are retold here after the supplement of paper PMC12764529.

± gives the half width of the 95% confidence interval.

The data set is described as follows: folding stability dG unfold (combined trypsin and chymotrypsin); higher = more stable. How it is done:
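Folding stability of de novo designed mini-proteins (<80 aa, no Cys; designed by TrROS, TrMRF, ProteinMPNN and the joint model) was measured by cDNA display proteolysis with trypsin and chymotrypsin. Each protease was used at 11 concentrations in a threefold dilution series plus a no-protease condition. K50 was inferred by Bayesian fitting of sequencing counts, and dG unfold was derived against a sequence-predicted unfolded-state K50 (Tsuboyama et al. method). Sequences shown include variable-length N-terminal GS-type padding (SAGGSAGG...) inside a display construct carrying a PA tag. Rows were kept only if the AF2 dimer inter-PAE was >15, to exclude likely homo-oligomers.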
Take “SAGGSAGGSMKVRLLIGEEEVEKAIAEGIPKEVMKPEKEKIPSSTDPRFAGNPEPVLLYYIGESAGGSAGGS [r12_78_JUSTAS]”: the “folding stability dG unfold” value is less than -1 kcal/mol.

Consider “SAGGSAGGSMPYEVTITDPNSDRTRTRKVSGDSPEISEAVPPSHTVTLTFGGTKTTLPVPALSSAGGSAGGS [r20_36_JUSTAS]”, for which the “folding stability dG unfold” value was less than -1 kcal/mol. For the sequence “SAGGSAGGSMSIPSDATLVRTYRRGGEELTVSGSVDPATGTVLSEGSLSKRPDATLTEVSVVSSAGGSAGGS [r12_6_JUSTAS]”, the “folding stability dG unfold” value was less than -1 kcal/mol. As to “SAGGSAGGSMTFKLKDGKVITYDPANPTLHFPGPPETIPTGGANIAQTIADLKAKGFDYEEVVESAGGSAGG [r6_340_JUSTAS]”, the “folding stability dG unfold” value is less than -1 kcal/mol. The value for “SAGGSAGGSMVEEFETTEFSPPEPLVRVERLKKEIFTFPENSLSYKVTPVEERLVTPEEVAAESAGGSAGGS [r12_374_JUSTAS]” was less than -1 kcal/mol; that for “SAGGSAGGSMVEVVVRPPGGPEYRVSPETSPEEVRARVEAEAGPPPEIEISEEEAKALGVPARSAGGSAGGS [r12_379_JUSTAS]” was less than -1 kcal/mol; that for “SAGGSAGGSNGNYRIKIKIRKPNGEPKSQHTFNIPSPEQIKESLAQQPGFPPDRIEDVEVGPYSAGGSAGGS [r12_182_TrROS]” was less than -1 kcal/mol. For “SAGGSAGGSPKEYYIRVKDPEKAKEIMKPLGWPIKPGDEFPIKDPEDILEKLPGIEGIEIHPVSAGGSAGGS [r12_571_TrROS]”, the “folding stability dG unfold” value was less than -1 kcal/mol. With “SAGGSAGGSPLYIQIERRNPKNGENQTLELPIPIDGDPSDARDIAKEIAEQLPPNDYKIEVFRSAGGSAGGS [r12_871_TrROS]”, the “folding stability dG unfold” value is less than -1 kcal/mol. The value for “SAGGSAGGSPPKPITIMAPYDSPEEAMDKAEEIADELANEGYDIKDVEIEYHPNNGYAMVRIRSAGGSAGGS [r20_155_TrROS]” was less than -1 kcal/mol; that for “SAGGSAGGSPSITIEKDKEKPVYKVTVYTPNGEKKVFENPEGKKVTTDSNGGEIYIDDVKINVSAGGSAGGS [r12_346_TrMRF]” was less than -1 kcal/mol; that for “SAGGSAGGSPYKEIPFRFPENGYKVHIKKDPNGSVKIYVMGPNMRERTIPPDEPLEIEPGARLSAGGSAGGS [r12_1003_TrROS]” was -0.46 ± 0.63 kcal/mol.

With “SAGGSAGGSRTIHIPHNAMDKMPPSFEKKIRELADELNIDIEHNNNWMTIPVKGLTEEAIKEFSAGGSAGGS [r12_945_TrROS]”, the “folding stability dG unfold” value was less than -1 kcal/mol. The result for “SAGGSAGGSSMPVLPVRTEEFPHPDSVYTVTTTRYPPTGATVTVLSTRFPGPPEVVTSTTVTPSAGGSAGGS [r12_14_JUSTAS]” reads less than -1 kcal/mol; that for “SAGGSAGGSSMSFSFSERRDGKEYSVSVTTAVTPLTLPNGTLRTLTTPTTTVTDPSGKVLSTSSAGGSAGGS [r20_224_JUSTAS]”, less than -1 kcal/mol. The result for “SAGGSAGGSSMTPVSSTRSSPSNSVTYTTSRIPIDPSPGKVLNVTTTYSPDPSVTTTTTTVEPSSAGGSAGG [r6_13_JUSTAS]” reads less than -1 kcal/mol; that for “SAGGSAGGSTIPIRDPNREIEIVKHPDNMYRIEIEPNGGKREIILPPEAMQQKPITIEELIDQSAGGSAGGS [r20_90_TrROS]”, less than -1 kcal/mol.

As for “SAGGSAGGSTMEKLQDKAKELGPNVSVEPSQDGPDSIKITFDPDHPKKIKDIAKEYGIKVQIYSAGGSAGGS [r12_74_TrROS]”, the “folding stability dG unfold” value was less than -1 kcal/mol. For “SAGGSAGGSVKELAKKAGIKDIDVEPHPNDGWVEIKITMKNPKNGKKREGNILIRDPKDGEPLSAGGSAGGS [r12_133_TrROS]”, the “folding stability dG unfold” value is less than -1 kcal/mol.

For the sequence “SAGGSAGGSVKITRTPNGYYTVKIEDPGGVPVEIPVPADDPGMTNKEAEDEVKPIAKEFKRLKSAGGSAGGS [r12_642_TrROS]”, the “folding stability dG unfold” value is less than -1 kcal/mol.

Consider “SAGGSAGGSVVPIEYDEDGMLKIEHRNNDKKREHTIPADDADEMPPDFLKDLPPDKIDEITPYSAGGSAGGS [r12_793_TrROS]”, for which the “folding stability dG unfold” value is less than -1 kcal/mol.

Take “SAGGSAGGSYKLGSKLIKEVTSEATPGPSTLETITLEDKTYPITLVGDSLNISPELKKAIELNSAGGSAGGS [r20_92_JUSTAS]”: the “folding stability dG unfold” value was less than -1 kcal/mol. The result for “SAGGSAGGVRVRVVYPDGEPIGEIDIQLPPEMPQDQRQVKELAENIASRFKENGRKVKVEIEPPSAGGSAGG [r6_884_TrROS]” reads less than -1 kcal/mol; that for “SAGGSAGGVSKVLEVRPAPGSGTYTVRTLREDPATGTTTEEVLTIPTSRPEVVDSLPPDATVELSAGGSAGG [r6_979_JUSTAS]”, less than -1 kcal/mol; that for “SAGGSAKITIEPVKDQYRIEIKIPVFDPNGKKDPIEIPMYMPPDDPERMKDQILDWAREKNPDLIISAGGSA [r15_1050_TrROS]”, less than -1 kcal/mol. For the sequence “SAGGSAKIVIPGMSPSMIRHAIKEGVKKIHIVWPNPEQAKGFKKELEKEDGIPIKVVPAEEAKKLESAGGSA [r15_243_TrROS]”, the “folding stability dG unfold” value is less than -1 kcal/mol. In the case of “SAGGSAKVTVDEKDLKVTVESNIPVLVTYTLPGGKKKPFAGYLPPEKIEEFAKKEAEKFATELLGKSAGGSA [r15_365_TrMRF]”, the “folding stability dG unfold” value is less than -1 kcal/mol. For the sequence “SAGGSAMERRTFNLPADRVSPEVLLEKLKAVGLTPTEIKPVPDGVEVVVEYDPSKVEKLEKALKEGSAGGSA [r15_161_JUSTAS]”, the “folding stability dG unfold” value was less than -1 kcal/mol. The result for “SAGGSAMFEVRKLSEDPSTGVTTELITLPDGKEVTVTTTTDSSGNPTVTVTFPDGTVLSLEEVELESAGGSA [r15_832_JUSTAS]” reads less than -1 kcal/mol; that for “SAGGSAMIEVETRPLPTPRELVTVKFDSEELLPEVIEKLPGVEEVEVSESKGDGKPYYTATFVIPRSAGGSA [r15_344_JUSTAS]”, less than -1 kcal/mol; that for “SAGGSAMTLVEEVPVAPGTLVEAESIAVSPEGKIYRSRVEGLEPGRARVTVPVEELPGNLEDPELISAGGSA [r15_909_JUSTAS]”, less than -1 kcal/mol. The result for “SAGGSAMVIEVEEEALSEEEAEEIKEEKLKEAKEKLPGEEPVELDIKVTVTVKEPEEKPYKKNILKSAGGSA [r15_663_JUSTAS]” reads less than -1 kcal/mol; that for “SAGGSANFKIRMPNGRPMDIQPDPEGETWVIRMPGGHIIPIEIKDGKLKDIKILPGMPPNWSIEPVSAGGSA [r15_709_TrROS]”, less than -1 kcal/mol. The result for “SAGGSAPDFKIKDIKIPHRRNPNGMYRVEIKLEVPDGRKIPIEVPYNEDGKPTPEQIENAAKELAKSAGGSA [r15_233_TrROS]” reads less than -1 kcal/mol. Consider “SAGGSAPEPYTFKMKNPKGPPVEITITRNPNNGNYMISVEMPGPGKKHEGPMPMEDLNNLPGLEPVSAGGSA [r15_622_TrROS]”, for which the “folding stability dG unfold” value was less than -1 kcal/mol. The value for “SAGGSAPPPKMKRIELKVEDPEHGYEVRVEVMIYPNDSISIQYESPNGKPLPKERAQKLLKELGIESAGGSA [r15_872_TrROS]” was less than -1 kcal/mol; that for “SAGGSAPVIPVKSEEEAKEVAKAASPDKDLLFKYPKGNVKLITIDPKNGPKITVKETLPVSPEKALSAGGSA [r15_577_JUSTAS]” was less than -1 kcal/mol. The result for “SAGGSATIKIPPGMDMEIDDVELNPDDKTVEVEITFGDGPMKARITPNGQKEIEMPNGQPFTIPIDSAGGSA [r15_111_TrROS]” reads less than -1 kcal/mol. The result for “SAGGSATTTEKWTIGDPSGPPRTVDLTKLPNSDEYLITVTYPDPNHTETGLLSEEEIKKIPNAVPKSAGGSA [r15_622_JUSTAS]” reads less than -1 kcal/mol. Turning to “SAGGSEEFEFRDPFNGEEFEVTRDPNNGELDVEYPNGWKMRISITDDRFEIVEMKPVPPPPVDPDQKSAGGS [r16_687_TrROS]”, the “folding stability dG unfold” value is less than -1 kcal/mol. The value for “SAGGSGNPNAPVPYIPKGYKTVPIPLKGDPNASEEELKKKLEEAKEKIKKEIDPTPDGIPIEINEGSAGGSA [r2_149_JUSTAS]” was less than -1 kcal/mol.
